Data as given in the RNAGym collection of RNA variant scans (doi:10.7554/elife.90254).

B1: LINE1-mini (parent)
chain: GGCAGAGCUCAACACAGCGUGGCAAAGUGGCUGUGGCUAGACUGCC

Variants of: B1
Test: self-cleavage, relative activity (ratio to wild type); higher = more cleavage; in vitro, sequencing; the parent is a self-cleaving ribozyme

Question: For GGCAGAGCUCAAAACAGCGUGGCAAAGUGGCUGGGGCUAGACUGCC [C13A U34G], which self-cleavage is on record?
Answer: 0.03

Question: With GGCAGAGCUCAAAACAGCGUGGCAAAGUGGCUGCGGCUAGACUGCC [C13A U34C] as the variant, how does the self-cleavage read?
Answer: 0.06

Question: With GGCAGAGCUCAAAACAGCGUGGCAAAGUGGCUGAGGCUAGACUGCC [C13A U34A] as the variant, how does the self-cleavage read?
Answer: 0.07

Question: With GGCAGAGCUCAAAGCAGCGUGGCAAAGUGGCUGUGGCUAGACUGCC [C13A A14G] as the variant, how does the self-cleavage read?
Answer: 0.08

Question: Which self-cleavage does the source give for GGCAGAGCUCAAAUCAGCGUGGCAAAGUGGCUGUGGCUAGACUGCC [C13A A14U] here?
Answer: 0.12

Question: With GGCAGAGCUCAAACCAGCGUGGCAAAGUGGCUGUGGCUAGACUGCC [C13A A14C] as the variant, how does the self-cleavage read?
Answer: 0.08

Question: With GGCAGAGCUCAAAACAGCGUGGCAAAGUGGGUGUGGCUAGACUGCC [C13A C31G] as the variant, how does the self-cleavage read?
Answer: 0.06

Question: For GGCAGAGCUCAAAACAGCGUGGCAAAGUGGUUGUGGCUAGACUGCC [C13A C31U], which self-cleavage is on record?
Answer: 0.09

Question: With GGCAGAGCUCAAAACAGCGUGGCAAAGUGGAUGUGGCUAGACUGCC [C13A C31A] as the variant, how does the self-cleavage read?
Answer: 0.06

Question: With GGCAGAGCUCAAAACAGCCUGGCAAAGUGGCUGUGGCUAGACUGCC [C13A G19C] as the variant, how does the self-cleavage read?
Answer: 0.06

Question: With GGCAGAGCUCAAAACAGCUUGGCAAAGUGGCUGUGGCUAGACUGCC [C13A G19U] as the variant, how does the self-cleavage read?
Answer: 0.09

Question: Which self-cleavage does the source give for GGCAGAGCUCAAAACAGCAUGGCAAAGUGGCUGUGGCUAGACUGCC [C13A G19A] here?
Answer: 0.15

Question: Which self-cleavage does the source give for GGCAGAGCUCAAAACAGCGCGGCAAAGUGGCUGUGGCUAGACUGCC [C13A U20C] here?
Answer: 0.04

Question: For GGCAGAGCUCAAAACAGCGAGGCAAAGUGGCUGUGGCUAGACUGCC [C13A U20A], which self-cleavage is on record?
Answer: 0.11

Question: Which self-cleavage does the source give for GGCAGAGCUCAAAACAGCGGGGCAAAGUGGCUGUGGCUAGACUGCC [C13A U20G] here?
Answer: 0.1

Question: With GGCAGAGCUCAAAACAGCGUGGGAAAGUGGCUGUGGCUAGACUGCC [C13A C23G] as the variant, how does the self-cleavage read?
Answer: 0.13

Question: For GGCAGAGCUCAAAACAGCGUGGAAAAGUGGCUGUGGCUAGACUGCC [C13A C23A], which self-cleavage is on record?
Answer: 0.16

Question: Which self-cleavage does the source give for GGCAGAGCUCAAAACAGCGUGGUAAAGUGGCUGUGGCUAGACUGCC [C13A C23U] here?
Answer: 0.16

Question: For GGCAGAGCUCAAAACAGCGUGGCAAAGUGCCUGUGGCUAGACUGCC [C13A G30C], which self-cleavage is on record?
Answer: 0.14

Question: For GGCAGAGCUCAAAACAGCGUGGCAAAGUGACUGUGGCUAGACUGCC [C13A G30A], which self-cleavage is on record?
Answer: 0.08

Question: With GGCAGAGCUCAAAACAGCGUGGCAAAGUGUCUGUGGCUAGACUGCC [C13A G30U] as the variant, how does the self-cleavage read?
Answer: 0.11

Question: With GGCAGAGCUCAAAACAGCGUGGCAAAGUGGCUGUGGCUAGACUGCA [C13A C46A] as the variant, how does the self-cleavage read?
Answer: 0.07

Question: With GGCAGAGCUCAAAACAGCGUGGCAAAGUGGCUGUGGCUAGACUGCU [C13A C46U] as the variant, how does the self-cleavage read?
Answer: 0.08

Question: Which self-cleavage does the source give for GGCAGAGCUCAAAACAGCGUGGCAAAGUGGCUGUGGCUAGACUGCG [C13A C46G] here?
Answer: 0.06

Question: With GGCAGAGCUCAAGCCAGCGUGGCAAAGUGGCUGUGGCUAGACUGCC [C13G A14C] as the variant, how does the self-cleavage read?
Answer: 0.05

Question: For GGCAGAGCUCAAGUCAGCGUGGCAAAGUGGCUGUGGCUAGACUGCC [C13G A14U], which self-cleavage is on record?
Answer: 0.09

Question: With GGCAGAGCUCAAGGCAGCGUGGCAAAGUGGCUGUGGCUAGACUGCC [C13G A14G] as the variant, how does the self-cleavage read?
Answer: 0.08

Question: With GGCAGAGCUCAAAACAGCGUGCCAAAGUGGCUGUGGCUAGACUGCC [C13A G22C] as the variant, how does the self-cleavage read?
Answer: 0.05

Question: For GGCAGAGCUCAAAACAGCGUGACAAAGUGGCUGUGGCUAGACUGCC [C13A G22A], which self-cleavage is on record?
Answer: 0.15

Question: With GGCAGAGCUCAAAACAGCGUGUCAAAGUGGCUGUGGCUAGACUGCC [C13A G22U] as the variant, how does the self-cleavage read?
Answer: 0.11

Question: Which self-cleavage does the source give for GGCAGAGCUCAAAACAGCGUGGCAAAGUGGCAGUGGCUAGACUGCC [C13A U32A] here?
Answer: 0.11

Question: With GGCAGAGCUCAAAACAGCGUGGCAAAGUGGCCGUGGCUAGACUGCC [C13A U32C] as the variant, how does the self-cleavage read?
Answer: 0.09

Question: For GGCAGAGCUCAAAACAGCGUGGCAAAGUGGCGGUGGCUAGACUGCC [C13A U32G], which self-cleavage is on record?
Answer: 0.08

Question: Which self-cleavage does the source give for GGCAGAGCUCAAAACAGCGUGGCAAAUUGGCUGUGGCUAGACUGCC [C13A G27U] here?
Answer: 0.08

Question: For GGCAGAGCUCAAAACAGCGUGGCAAAAUGGCUGUGGCUAGACUGCC [C13A G27A], which self-cleavage is on record?
Answer: 0.18

Question: Which self-cleavage does the source give for GGCAGAGCUCAAAACAGCGUGGCAAACUGGCUGUGGCUAGACUGCC [C13A G27C] here?
Answer: 0.1

Question: Which self-cleavage does the source give for GGCAGAGCUCAAAACAGCGUGGCGAAGUGGCUGUGGCUAGACUGCC [C13A A24G] here?
Answer: 0.11

Question: Which self-cleavage does the source give for GGCAGAGCUCAAAACAGCGUGGCCAAGUGGCUGUGGCUAGACUGCC [C13A A24C] here?
Answer: 0.18

Question: With GGCAGAGCUCAAAACAGCGUGGCUAAGUGGCUGUGGCUAGACUGCC [C13A A24U] as the variant, how does the self-cleavage read?
Answer: 0.08

Question: For GGCAGAGCUCAAAACAGCGUGGCAAAGUGGCUGUGGCUAGACUGUC [C13A C45U], which self-cleavage is on record?
Answer: 0.15

Question: With GGCAGAGCUCAAAACAGCGUGGCAAAGUGGCUGUGGCUAGACUGAC [C13A C45A] as the variant, how does the self-cleavage read?
Answer: 0.08

Question: With GGCAGAGCUCAAAACAGCGUGGCAAAGUGGCUGUGGCUAGACUGGC [C13A C45G] as the variant, how does the self-cleavage read?
Answer: 0.09

Question: With GGCAGAGCUCAAGACAGCGUGGCCAAGUGGCUGUGGCUAGACUGCC [C13G A24C] as the variant, how does the self-cleavage read?
Answer: 0.07

Question: For GGCAGAGCUCAAGACAGCGUGGCUAAGUGGCUGUGGCUAGACUGCC [C13G A24U], which self-cleavage is on record?
Answer: 0.16

Question: For GGCAGAGCUCAAGACAGCGUGGCGAAGUGGCUGUGGCUAGACUGCC [C13G A24G], which self-cleavage is on record?
Answer: 0.22

Question: For GGCAGAGCUCAAAACAGCGUCGCAAAGUGGCUGUGGCUAGACUGCC [C13A G21C], which self-cleavage is on record?
Answer: 0.14

Question: Which self-cleavage does the source give for GGCAGAGCUCAAAACAGCGUAGCAAAGUGGCUGUGGCUAGACUGCC [C13A G21A] here?
Answer: 0.23

Question: With GGCAGAGCUCAAAACAGCGUUGCAAAGUGGCUGUGGCUAGACUGCC [C13A G21U] as the variant, how does the self-cleavage read?
Answer: 0.23

Question: With GGCAGAGCUCAAAACAGCGUGGCAAAGUGGCUGUGGCUAGAUUGCC [C13A C42U] as the variant, how does the self-cleavage read?
Answer: 0.09

Question: Which self-cleavage does the source give for GGCAGAGCUCAAAACAGCGUGGCAAAGUGGCUGUGGCUAGAGUGCC [C13A C42G] here?
Answer: 0.08

Question: For GGCAGAGCUCAAAACAGCGUGGCAAAGUGGCUGUGGCUAGAAUGCC [C13A C42A], which self-cleavage is on record?
Answer: 0.09

Question: With GGCAGAGCUCAAAACAGCGUGGCAAAGUGGCUGUGUCUAGACUGCC [C13A G36U] as the variant, how does the self-cleavage read?
Answer: 0.12

Question: With GGCAGAGCUCAAAACAGCGUGGCAAAGUGGCUGUGACUAGACUGCC [C13A G36A] as the variant, how does the self-cleavage read?
Answer: 0.23

Question: Which self-cleavage does the source give for GGCAGAGCUCAAAACAGCGUGGCAAAGUGGCUGUGCCUAGACUGCC [C13A G36C] here?
Answer: 0.06

Question: Which self-cleavage does the source give for GGCAGAGCUCAAAACAUCGUGGCAAAGUGGCUGUGGCUAGACUGCC [C13A G17U] here?
Answer: 0.11

Question: For GGCAGAGCUCAAAACAACGUGGCAAAGUGGCUGUGGCUAGACUGCC [C13A G17A], which self-cleavage is on record?
Answer: 0.1
